Measured values published in paper PMC13507242.
One block for each substance: values may come before it.

Experiments:
[1] = biological target: CD33^M ectodomain (CD33^M ECD), residues 21-232, Endo Hf-deglycosylated (human); assay: BLI; Octet RED384, 30 °C, 20 mM HEPES, 200 mM NaCl, 1 mg/mL casein, pH 7.5; Ni-NTA biosensors loaded with His6 deglycosylated CD33^M ECD WT or R119A; CLU 0.0025-5 µM; steady state (895-900 s), Hill equation; avidity
[2] = biological target: HA-tagged CD33^M (full-length major isoform) expressed in HEK293 / HEK293T cells (human); assay: co-IP; HEK293 / HEK293T cells expressing HA-tagged CD33 incubated with CLU (30 nM in the methods, 60 nM in the results), washed, lysed in 1% CHAPSO/TBS; IP with anti-HA, blot for CLU
[3] = biological target: CD33^M ectodomain (CD33^M ECD), residues 21-232, Endo Hf-deglycosylated (human); assay: BLI; Octet RED384, 30 °C, 20 mM HEPES, 200 mM NaCl, 1 mg/mL casein, pH 7.5; Ni-NTA biosensors loaded with His6 deglycosylated CD33^M ECD WT or R119A; CLU 0.0025-5 µM; steady state (895-900 s), Hill equation; avidity; remark: listed apart in the source
[4] = biological target: endogenous CD33^M of human U937 monocytic cells (human (endogenous in U937))
[5] = biological target: endogenous CD33^M of human U937 monocytic cells (human (endogenous in U937)); assay: co-IP; U937 cells (endogenous CD33) exposed to CLU (60 nM), desCLU, rCLU or CLU + Aβ; CD33 immunoprecipitated from lysates, blot for CLU
[6] = biological target: CD33^M ectodomain (CD33^M ECD), residues 21-232, Endo Hf-deglycosylated (human); assay: MST; Monolith NT.115, 23 °C, deglycosylated CD33 ECD labelled with Alexa Fluor 647; 20 mM HEPES pH 7.5, 150 mM NaCl, 0.05% Tween-20
[7] = biological target: CD33^M ectodomain (CD33 ECD), residues 21-232, glycosylated (human); assay: AUC; sedimentation velocity (0.4 mg/ml, 40,000 rpm) and sedimentation equilibrium (0.2, 0.1, 0.05 mg/ml, 16,000 or 20,000 rpm), 20 °C, 20 mM HEPES, 200 mM NaCl, pH 7.5; dimer to monomers
[8] = biological target: CD33^M ectodomain (CD33^M ECD), residues 21-232, Endo Hf-deglycosylated (human); assay: SEC-MALS; Superdex 75 10/300 GL, 20 mM HEPES, 200 mM NaCl, pH 7.5; loaded at 100 and 20 µM (<10 and 2 µM on the column); dimer to monomers
[9] = biological target: CD33^M ectodomain (CD33^M ECD), residues 21-232, Endo Hf-deglycosylated (human); assay: AUC; sedimentation velocity (0.4 mg/ml, 40,000 rpm) and sedimentation equilibrium (0.2, 0.1, 0.05 mg/ml, 16,000 or 20,000 rpm), 20 °C, 20 mM HEPES, 200 mM NaCl, pH 7.5; dimer to monomers

HA-tagged CD33^M (full-length major isoform) expressed in HEK293 / HEK293T cells (human), sequence (P20138 18-364): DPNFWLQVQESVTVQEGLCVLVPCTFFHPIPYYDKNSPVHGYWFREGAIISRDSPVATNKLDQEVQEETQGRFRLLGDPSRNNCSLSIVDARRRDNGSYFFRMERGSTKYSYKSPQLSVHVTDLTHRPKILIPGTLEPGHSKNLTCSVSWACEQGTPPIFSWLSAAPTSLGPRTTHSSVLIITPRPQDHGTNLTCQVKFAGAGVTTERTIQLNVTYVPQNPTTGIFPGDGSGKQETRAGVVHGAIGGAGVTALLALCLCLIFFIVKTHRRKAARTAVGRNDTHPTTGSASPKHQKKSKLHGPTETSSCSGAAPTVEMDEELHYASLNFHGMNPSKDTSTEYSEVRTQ
endogenous CD33^M of human U937 monocytic cells (human (endogenous in U937)), sequence (P20138 18-364): as above

Kd [1]: 28.9 nM | CD33-bound CLU in the co-IP (panel d) [2]: 1.15 | ratio of co-precipitated CLU to CD33 band intensities [2]: 0.85 arb. units | ratio of co-precipitated CLU to CD33 band intensities (panel c) [2]: 0.425 arb. units | ratio of co-precipitated CLU to CD33 band intensities, cells expressing CD33^M + CD33^m [2]: 0.45 arb. units | Kd [3]: 27.9 nM | CD33 ITIM tyrosine phosphorylation (CD33^M-pTyr) in U937 cells, relative to no treatment (relative to no treatment (1.00)) [4]: 6.28 | CD33-bound CLU in the co-IP (panel e) [5]: 1.04 | ratio of CLU to CD33 band intensities [5]: 1.23 arb. units | Kd [6]: 55.1 nM
Substance: native sialylated clusterin (CLU) purified from human plasma (from UniProt P10909 23-227; P10909 228-449) (ligand)

Substance: CLU + Aβ1-42 oligomers (CLU/Aβ 1-42 mixture) (from UniProt P10909 23-227; P10909 228-449; P05067 672-713) (complex)
CD33-bound CLU in the co-IP (panel d) [2]: 1.38 | Kd [3]: 28.2 nM | CD33 ITIM tyrosine phosphorylation (CD33^M-pTyr) in U937 cells, relative to no treatment (relative to no treatment (1.00)) [4]: 11.9 | CD33-bound CLU in the co-IP (panel e) [5]: 1.06

Kd [7]: 300 nM
Substance: CD33^M ectodomain (CD33 ECD), residues 21-232, glycosylated (domain or fragment)

Kd [8]: 100 nM | stoichiometry N [8]: 2 | Kd [9]: 710 nM
Substance: CD33^M ectodomain (CD33^M ECD), residues 21-232, Endo Hf-deglycosylated (domain or fragment)
